B1: rhPDE3A-A510 (recombinant form lacking the first 510 aa of the PDE3A open reading frame) (enzyme)
chain: SRPGALAKISPLSSPCSSPLQGTPASSLVSKISAVQFPESADTTAKQSLGSHRALTYTQSAPDLSPQILTPPVICSSCGRPYSQGNPADEPLERSGVATRTPSRTDDTAQVTSDYETNNNSDSSDIVQNEDETECLREPLRKASACSTYAPETMMFLDKPILAPEPLVMDNLDSIMEQLNTWNFPIFDLVENIGRKCGRILSQVSYRLFEDMGLFEAFKIPIREFMNYFHALEIGYRDIPYHNRIHATDVLHAVWYLTTQPIPGLSTVINDHGSTSDSDSDSGFTHGHMGYVFSKTYNVTDDKYGCLSGNIPALELMALYVAAAMHDYDHPGRTNAFLVATSAPQAVLYNDRSVLENHHAAAAWNLFMSRPEYNFLINLDHVEFKHFRFLVIEAILATDLKKHFDFVAKFNGKVNDDVGIDWTNENDRLLVCQMCIKLADINGPAKCKELHLQWTDGIVNEFYEQGDEEASLGLPISPFMDRSAPQLANLQESFISHIVGPLCNSYDSAGLMPGKWVEDSDESGDTDDPEEEEEEAPAPNEEETCENNESPKKKTFKRRKIYCQITQHLLQNHKMWKKVIEEEQRLAGIENQSLDQTPQSHSSEQIQAIKEEEEEKGKPRGEEIPTQKPDQ
notes: The range 511-1141 follows from the statement that the first 510 aa of the open reading frame were deleted; Incubated with or without rPKAc

How the values were obtained:
[1] = molecular target: His-tagged recombinant rat AKAP18δ (rAKAP18δ) (rat) (UniProt Q6JP77); assay: co-IP with anti-his beads, anti-Flag immunoblot, band ratios; reference is the same reaction without rPKAc
His-tagged recombinant rat AKAP18δ (rAKAP18δ) (rat), sequence (Q6JP77 whole entry, stated change not applied): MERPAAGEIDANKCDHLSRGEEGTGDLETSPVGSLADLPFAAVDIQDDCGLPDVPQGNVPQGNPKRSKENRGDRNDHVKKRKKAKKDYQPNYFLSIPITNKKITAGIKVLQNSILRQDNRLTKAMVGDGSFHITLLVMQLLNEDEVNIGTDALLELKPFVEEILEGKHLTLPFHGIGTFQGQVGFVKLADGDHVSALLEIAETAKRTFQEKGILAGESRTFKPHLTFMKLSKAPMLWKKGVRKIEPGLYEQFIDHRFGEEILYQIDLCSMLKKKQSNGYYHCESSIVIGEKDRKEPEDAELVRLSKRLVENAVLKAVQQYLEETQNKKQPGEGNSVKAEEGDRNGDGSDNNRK

[2] = molecular target: T1, Purified recombinant SERCA2 (rSERCA2, Abnova) (UniProt P16615 1-1042, limits assumed); assay: co-IP of the Flag-tagged construct with purified rSERCA2 (150 ng), anti-Flag IP, anti-SERCA2 immunoblot
T1 construct: Bought protein; The legend gives 1042 amino acids, while the discussion calls it SERCA2a
T1 sequence (P16615 whole entry): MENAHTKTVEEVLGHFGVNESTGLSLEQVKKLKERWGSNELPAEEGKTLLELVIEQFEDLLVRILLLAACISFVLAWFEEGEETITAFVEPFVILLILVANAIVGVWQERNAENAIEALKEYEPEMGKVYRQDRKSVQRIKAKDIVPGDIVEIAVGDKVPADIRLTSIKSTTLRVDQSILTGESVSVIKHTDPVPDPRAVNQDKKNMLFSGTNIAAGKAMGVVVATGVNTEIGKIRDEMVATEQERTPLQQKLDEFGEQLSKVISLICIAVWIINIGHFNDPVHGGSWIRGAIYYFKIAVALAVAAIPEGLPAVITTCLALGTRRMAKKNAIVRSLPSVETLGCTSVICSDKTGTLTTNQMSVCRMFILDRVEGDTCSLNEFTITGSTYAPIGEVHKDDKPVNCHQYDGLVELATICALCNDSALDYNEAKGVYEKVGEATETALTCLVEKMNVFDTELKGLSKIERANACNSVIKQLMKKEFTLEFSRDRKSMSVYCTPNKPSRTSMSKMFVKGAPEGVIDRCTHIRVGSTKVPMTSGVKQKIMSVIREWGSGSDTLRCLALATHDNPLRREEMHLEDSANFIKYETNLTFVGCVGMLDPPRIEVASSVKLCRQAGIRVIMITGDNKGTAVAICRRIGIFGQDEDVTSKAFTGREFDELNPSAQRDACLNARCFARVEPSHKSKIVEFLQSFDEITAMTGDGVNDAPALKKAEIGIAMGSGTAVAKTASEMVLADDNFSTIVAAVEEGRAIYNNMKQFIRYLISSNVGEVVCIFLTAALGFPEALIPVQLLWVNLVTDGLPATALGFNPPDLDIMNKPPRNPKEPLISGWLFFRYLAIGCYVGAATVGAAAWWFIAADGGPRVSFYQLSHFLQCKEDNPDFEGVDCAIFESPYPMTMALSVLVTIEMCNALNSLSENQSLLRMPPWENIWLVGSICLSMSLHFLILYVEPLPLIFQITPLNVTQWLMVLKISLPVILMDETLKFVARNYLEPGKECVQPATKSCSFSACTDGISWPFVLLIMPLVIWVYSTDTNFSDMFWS
From the text: FIG. 11 a-d. rPKAc phosphorylates rhPDE3A and increases its interactions rSERCA2. A. Schemes representing PDE3A1 [NHR1: trans-membrane domain (obligatory membrane insertion domain); NHR2: membrane association domain; CCR: conserved C-terminal catalytic region; P1-4: predicted PKA phosphorylation sites; rhPDE3A and truncated mutants (PDE3A2, PDE3A-A510, PDE3A-RD), and rSERCA2 (1042 amino acids, 3-77 cation transporter N-terminal; 93-341, E1-E2 ATPase; 345-724, haloacid dehydrogenase like hydrolase; 819-991, cation transporter ATPase C-terminus). B. Putative PKA phosphorylation sites of PDE3A designated with asterisks. […] Proteins were immunoprecipitated with anti-Flag antibodies and immunoblotted with anti-SERCA2 (upper panel), or anti-Flag (middle panel). Lower panel: input control (SERCA2). Shown are representative blots from three independent experiments. (RD: regulatory domain; AA: amino acid).

Row | Molecule | fold increase in binding (with rPKAc against control without rPKAc) [1] [fold] | binding result [2]
1 | Flag-tagged recombinant human PDE3A1 (rhPDE3A1), phosphorylated in vitro by rPKAc (from UniProt Q14432 146-1141) (enzyme) | 9 | –
2 | B1 | – | no binding

Source: patent US20160083701A1 (UNITED STATES OF AMERICA AS REPRESENTED BY THE DEPARTMENT …, published 2016)
